From the DeepSol protein solubility set

test: soluble on expression in E. coli; label from the status in PepcDB or PDB records

Sequence	soluble on expression in E. coli
MEMRGKITKINENGLGVLGNILVPFAYPGDEVEVTETRERFGKIIARDFKLMTPSPLRIPGKCSHFGKCGGCLWQGLRYREQLKLKEEIFKRITGIEAEIKGSPRIWYFRNISNFIITVNGIGFKEFGMPKTVVNIRECPIFSERTPKYLKALKDFLRESNLKPWNWREGDVHYLQVREGKFTGEVMVNIIAHVPLNYREALMEAFNFADSIYWSLKADKKDDPRGFPTLVLGNEVIREKVEGITYLIHPSVFFQTNSYALPLLLKSVEKFCEGSKVLDLYSGIGTLSLYLAKRGFEVTGVEVNGTSVEMAKRSAEINSINATFIQGKAEDAELEGYETLIVDPPRKGLKEFSRRIVKKGPNTLIYVSCNPLRFILDYRNYLSEAYKVDDALLIDMFPHTPHIEAVIKLVRR	soluble
MPAIVCQSALEAVSLIRSGETLWTHSMGATPKVLLDALAKHALTLDNITLLQLHTEGAESLSHPSLLGHLRHRCFFGGVPTRPLLQSGDADYVPIFLSEVPKLFRSGEQKIDTAIIQVSPPDKHGMCSLGISVEATLAACQVAGKIIAHINPQMPRTHGDGFIHIDRFAAVYEQSASLPIHSFATGDAVSLAIGQHVAELVRDGDCLQMGIGAIPDAVLSCLTGHKDLGVHTELFSDGILQLVEKGVINNTKKRFYPGKLVTGFALGSQKLYDYVDDNPAVIFMDIEQVNDTSIIRKNPNVMAINSALQVDLTGQVCADSIGTKIYSGVGGQMDFIRGAGLSEGGRSVIALPSTAAGGRISRIASVLSPGAGVVTTRAHVHYIVTEYGAANLKGRSLRERAQALINIAHPDFREQLSRDAFEVWGLNLLEHHHHHH	soluble
SMSRKRPPSDIHDSDGSSSSSHQSLKSTAKWAASLENLLEDPEGVKRFREFLKKEFSEENVLFWLACEDFKKMQDKTQMQEKAKEIYMTFLSSKASSQVNVEGQSRLNEKILEEPHPLMFQKLQDQIFNLMKYDSYSRFLKSDLFLKHKRTEE	soluble
MGSDKIHHHHHHMTIWVRNGNNAATEQEISAKETELGLFLPAEYKELLLKQNGGLIRKNHFPTNEPTSYGLDVAEIYYLASLNELLTDIPEQNDVDLAGKQVYFHRDESRYIGFSYADNKSLPSIIYVDFETLQTLVVAENMAEFLEALYFSPFPVDFAEQFPVKKLDQILASSNVKKTKQLLELLEDYPDKKWYLETLIRLLQKNEIPYNIVVYQSFENQLLYFRRKLVPELVEKIFAMLKDCDGIDQSATTELYKEWE	not soluble
MGSDKIHHHHHHACEEEGLGNEETPFAPYVLSLGINSNGTTTYYVVTAPELMSGTINAVAKGIEQNGYRDYEQAGQTVFSIGGLGLTSATGIVRDANGYLTERGDFVFNSSLNAFTQMDGQNMIGLELPANKESGDQMTLYTVNISDVSITSQVKAPVFPLNQLEWPSITGMCYSEGNVYVTYFPMNPSTFETLYTDTTFVAVYSYPDMQFKTLMKDTRTGPAGSWNAFNGIFKVESGDMYIMSNSAIANGFSQSTKNAAFLRIPKGETHFDDYYFDFETVSGGLKPAHIKYIGNGLVFAEVSTISPQTSADRWGDKSLKCCIIDLNNKTVRDIKEIPVHNGDGGRRFAALVDGGYVYRPVTASEGTYIYQVDPQAATAVRGAKVSTTFVGGFFRLD	not soluble
MSLVPRVMSTQHPDNARIPFFAASEVLNGEDEVREAYYVFSHFKCDEQMWDFEGKEADAHIVRKLLSSYYDFFSSRPLGKDFRLTMRVPNPEIEKGEAKLLAETLEMIPRSYDYVRSLGIEHPPIFEVILPMTRSAEEVMKVHAFYRDFVAGKGRFELLGEKVSDWLGDFLPEEIKVIPLFEDRDSLMRAAEISERYAEWAELDELRVFLARSDPAMNYGFVAATIYVKKALYDLSQLGISTYPILGVGSCPFRGGFSPKNLSVLDEFPSVYTFTVQSAFKYDYEFGDVRRAIKRAKEAARRKSDYVDEEHLQVAEKLKDGYRRRIAKIAEIVNRISSRIPRRRMRKLHVGLFGYSRGEEIKLPRAITFCASLYSIGLPSEIIGIAEMSDKDYEAVCEVFKNFDGMMESAMSLFNPESLKIVDLSMDFERAKELFGYEPDERHLEKTNEIIKQIDGDIKNLVVEAGILRGFLGEGHHHHHH	not soluble
MNSAKKEFEISHIFTDVSKLENGNFLLSPEEDHFNVPWDLQLYREDDHLDVYLRCTKLTENDEICAIDTEFELTLKTSNGKQMSRRVKVDFTLENIMIPAWRWSKVVSWETLLKEYLIDDSIIVEAAVMIKAMTGIPRMKLRSFEKSAQEYSDAIIAIGDEKFYVLKKFLAAHSTYFKDLLFGDFDFEQAENSEITLSDINSTDFQCLLEVLYGEPAIDEENIDGILKLAQKYNMPLRFGDVKSS	not soluble
MSTTTDYDDNDVKIITKPVQSKNPVLIEGFPGIGLVGNIASQHIIEELNMEYIGSIDSRYFPSIAVLYEGLINMPVRIYENVEHNLIIVISDIPISHSVSYDVSNALVDWAEAINVKEIASIAGIAIMDGGHKVFGAATTPEMLDKIRDKVEIFQMGTISGISGSVMAECLLRGIPAISLLGATRTQNPDPRAASSVIGVLNELYGLSISTDRLIEQAERIEIELQRLAEDVQATERKGEVKKEFPMYG	soluble
YIRKRVPLLCLGKRWFVFDKSLMKKTISYGSTSAMQQVCLQIGKTIIQAVVNTQGVSVMAAFTAVNRVDDFAYIPQQNIGHAMTTFIAQNKGAGKRERIRRGLQ	not soluble
MTVFTPRTDCEVAVIGAGPFGLAAASALKGAGVDALTLGGAMSFWRDHMPRGMRLRSPWHATYIGHTKGPLSLDSYAKVLGISPREPLLLENFVDYGLWIQAQAVPDLDTRKVDRVEKANGGFRLALADGNAIKARRVVVATGLMNQQLIPAVFDGIPRELVSHASEHTGYEAFRGKRVAVIGRGQSACESAVLLKRNGAEVDLVCHGDIHWLGYRALSGKQGWSLRDFLSERLASPSRVGPFPISWLVEVPGVVHRFPEPARAGLNRRSLGAGATGWLKPDFDGIEIRAGSRIISASARDNGIELRFEKDFASFDHVVLGTGYRIDIAKLGLFAPAMLAAIARREGLPLLSAGFESSIPGLHFVGASAVGSFGPLMRFTAGTPFAARTVARFIQRAKDRRYTAALEHHHHHH	not soluble
MIPDTEQELINQYLKKISKIPLLTPEEEKELARRAKQGDKEALKKLVESNLRFVVSVAKQYIGYGLPFSELIAAGNLGLLEAAKRFDPDRGVKFISYAVWWIRQAIMQALSQQTGAVRIPLKQSHIINKISHIYGELSKKLEREPSPEEIAEELSKQMIAKELEKELGREPTEEEIEERFKKEGYKITPEEVEKYLQVCRVPLSLDAPVGENEDTFFIDFLSKHGTAEVEEKVIQEVIQKEIDDLLSKLTDKERKVIELRFGLKGNEPKTLREIGEILGLSRERVRQLETRALRKLRSLAMKRHLKDFLS	soluble
FGNFNFNTNFVFGYAKNRVDYKAEAQQKYEWLRETGRQIGQPFGYHWIGYYTPEDIEKINSGAADAPAKPDIAVQAGDLKYADLNGDGTINDFDKRAIGKPNLPTTTLGWTIGGSWKGFSISVLFQGSFDYSFAINGTGIESGKSQFQPLHQKRWTQERYENGESIEFPRLTMQDGTINSASAYNSDFWLINAWYIRLKTVDLGYQLPKTALPKFLDNVRFYVNAYNLLTFTGYDKYQQDPEIKTNTAGDAYMNQRVINFGVQLGF	not soluble
ELVMTQSPLSLPVSLGDQASISCRPSQSLVHSNGNTYLHWYLQKPGQSPKLLIYRVSNRFSGVPDRFSGSGSGTAFTLKISRVEAEDLGVYFCSQGTHVPYTFGGGTKLELKRADAAPTVSIFPPSSEQLTSGGASVVCFLNNFYPKDINVKWKIDGSERQNGVLNSWTDQDSKDSTYSMSSTLTLTKDEYERHNSYTCEATHKTSTSPIVKSFNRNEC	soluble
MEEAKNPWLTGNLVEEANSQGIIQNRSIFNLFANTNIYIFFRHWTTIYERLLEIKQMNERVTKEINTRSTVTFAKDLDLLSSQLSEMGLDFVGEDAYKQVLRLSRRLINGDLEHQWFEESLRQAYNNKAFKLYTIDKVTQSLVKHAHTLMTDA	not soluble
MAHHHHHHMMRRVYAPVFCSVAAARFAATSAAKKYDLFGYEVDTNTAPWIEKIKKCKYYDEAGEVLVNMNVSNCPPDIATYNATLQCIYQSPSKQSTPVDNESKFCAMMDLLEEMQHRNRLKPNEESWTWVMKECVKSGQFRLGYCIQQVMETECKGCPADLVKANEANAQKAKTEGKEHPGHLSQQAGLFDVKVE	not soluble
MSLTKTEGKTASAAVKDILLSNPDGLREVIRTVMQEVLEAEMDEALGAAKGERTPERLGYRSGHYGRTLITRVGKLELRVPQDRSGHFSTELFERYQRSERALVATLAEMYVQGVSTRKVKAITEELCGHAFSASSISAINKRLDESLKAFAERSLQEPFAYLILDARYEKVREAGVVMSQAVLIAVGIDWDGRRQILSVEMAGRESRCAWKNFLVRLKGRGLKGVELVVSDDHAGLVAAIGEVIPEAAWQRCYVHFLRNALDHLPRKHGDDCLQELRWLYDRRDLDEAKADLAAWLGKWSVRYPRLTSWVEETIEQTLTFFRLPRQHHKHLKSTNMLERLNEEIRRRTYVVRIFPNTESCLRLVRALAVETHENWMEANRYINMDDLREHKKLALRQAAEGHHHHHH	soluble
EYYDVRGWDPHDRQVYTPIHEACYDRGGIFFAFFDDEQMIAAAALDTLPRGMNGELRQLLFFYVGAGKRGQGWGRRLFQYALHQLPEMGASGLYISSIPNKNTVDFYLAQG	not soluble
DENASAAEQVNKTIIGIDPGSGIMSLTDKAMKDYDLNDWTLISASSAAMTATLKKSYDRKKPIIITGWTPHWMFSRYKLKYLDDPKQSYGSAEEIHTITRKGFSKEQPNAAKLLSQFKWTQDEMGEIMIKVEEGEKPAKVAAEYVNKHKDQIAEWTKGVQKVKGDKINLAYVAWDSEIASTNVIGKVLEDLGYEVTLTQVEAGPMWTAIATGSADASLSAWLPNTHKAYAAKYKGKYDDIGTSMTGVKMGLVVPQYMKNVNSIEDLKK	soluble
MGSDKIHHHHHHMYDLIGVGIGPMNLGLSALAHPTPLRTLFFDESEQFSWHPGMMIKDSMMQTSFISDLVTLADPTSPFTYLNYLRSLNRLHTFYFYEKLLISRQEYNAYLKWVSTQLDDLHFSTRVIDIQDTGDSYEVLVEEVATGKRTTYETRNVVLGTGSKPSIPGSFDKNVIHNTQYVMEKEAILQQDKVSIVGSGQSAAEIFLDLLTSDRPETFELEWISRSTIFETLETGKLGEEIFSPSYVRYFNSLPLATRQEAVAKFTRSQNGISPETLQAIYEHLYDLSPEEQQRVKIRANLEVDQISYDSDFTITMRHTELNEQRTSKTGAVVAATGFVPSLPRFINRLDIEFEGEQQAWKVDANYRISRTVSANHHLYATTNLELSHGPAADNLGMSVSRNQLILNDVAGKELYPVEQHATFTTFD	not soluble
SAHSKTRTNDGKITYPPGVKEISDKISKEEMVRRLKMVVKTFMDMDQDSEEEKELYLNLALHLASDFFLKHPDKDVRLLVACCLADIFRIYAPEAPYTSPDKLKASTDLNNSKIDRYFDLSF	soluble
MGSDKIHHHHHHMQITLNIEHIRADTPLPPLFRVRQRWQTSPIADVAAVVYAELDKIGLAGHIQPGMRIAVTAGSRGISNIVTITAAAVAWLRAHGAEPFIVPAMGSHGGATAEGQVALLASLGITEQSVGCPIRATMDVVELGRIADGTPVYMDRFAAEADGVLVINRIKTHTSFKAPIESGLAKMCAVGLGKRQGAEIVHRTAVYGLKEQLVPMARMVVERGRVLAGLAILEDARDQTAAIVALPPAEIGGAGEAELLLRSKEMMARLPFDRLDVLVVDRIGKNISGTGMDTNVIGRLPIPGEPPPDRPVINVIVVLDLTPETHGNANGIGLADITTARLAAKIDFHATYVNVLTAGLVGLCKGGLPITLPTERDAVAMAIKTCGQPDLAAVRLVRIPDTLHLEELLVSEALLPEVTAHPNLELLGPAEWVLDCVEG	not soluble
